Reference: patent US20230212549A1, “COMPOUNDS COMPRISING A […] LIGAND AND USE THEREOF” (priority 2021, published 2023)
Bridge positions count the residues as written; N and C are the ends.

Molecular target: T1, DPP3, Q9NY33
T1 chain: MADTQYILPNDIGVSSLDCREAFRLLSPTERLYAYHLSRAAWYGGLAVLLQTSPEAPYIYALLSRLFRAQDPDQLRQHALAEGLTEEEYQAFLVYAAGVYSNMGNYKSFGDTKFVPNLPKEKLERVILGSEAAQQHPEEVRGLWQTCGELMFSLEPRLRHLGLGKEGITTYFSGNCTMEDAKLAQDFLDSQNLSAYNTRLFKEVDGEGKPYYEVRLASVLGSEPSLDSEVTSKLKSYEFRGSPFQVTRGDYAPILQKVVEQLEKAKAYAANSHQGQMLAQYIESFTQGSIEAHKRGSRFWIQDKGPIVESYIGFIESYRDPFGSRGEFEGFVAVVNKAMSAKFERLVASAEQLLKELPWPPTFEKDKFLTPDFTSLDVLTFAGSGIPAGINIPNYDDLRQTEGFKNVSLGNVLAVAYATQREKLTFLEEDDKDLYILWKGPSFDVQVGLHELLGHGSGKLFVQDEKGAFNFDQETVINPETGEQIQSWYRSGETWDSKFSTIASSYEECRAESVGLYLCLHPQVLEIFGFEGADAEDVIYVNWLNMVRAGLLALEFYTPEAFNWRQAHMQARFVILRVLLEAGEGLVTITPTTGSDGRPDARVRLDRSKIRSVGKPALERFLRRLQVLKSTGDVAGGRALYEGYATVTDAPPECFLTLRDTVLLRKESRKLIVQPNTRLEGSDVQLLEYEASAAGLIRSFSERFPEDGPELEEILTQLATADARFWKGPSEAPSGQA
Test: cell-based or functional assay

- Percentage inhibition (%) at 1 µM: 2%
- Percentage inhibition (%) at 10 µM: -1%
B1: Hex-[Cys(tMeBn(DOTA-AET))-Pro-Pro-Thr-Gln-Phe-Cys]-OH (peptide)
peptide: Hex-CPPTQFC-OH
modifications: bridge 1-7; not fully specified (bridges); printed as Hex-[Cys(tMeBn(DOTA-AET))-Pro-Pro-Thr-Gln-Phe-Cys]-OH
